In article doi:10.1101/2025.11.17.688911 one finds response and percent reduction of MT binding against WT MAP9-MTBD data, which are given here for three substances.

The target in experiment [1] is surface-immobilized biotinylated microtubules, Q2XVP4;Q767L7. As to the kind of experiment: fluorescence intensity of GFP-tagged MAP9-MTBD on surface-immobilized MTs (fluorescence microscopy). The settings on record: 100 nM MAP9 construct (stated for panel h); parent: est. 0.72; read off a plot.
In experiment [2] the target is surface-immobilized biotinylated microtubules (pig) (UniProt Q2XVP4). As to the kind of experiment: TIRF microscopy, fluorescence intensity of GFP-tagged MAP on microtubules; biotinylated MTs held on a streptavidin-coated coverslip; one concentration of WT or mutant MAP9 construct (100 nM in Fig. 1h-i and Extended Data Fig. 6b); BRB80, 100 mM salt.

As for “MAP9-MTBD (Human MAP9 (302–647)::GFP::strepII) (from UniProt Q49MG5) F473A; F516A”, the response in experiment [1] amounted to 0.17 a.u.

With “MAP9-MTBD (Human MAP9 (302–647)::GFP::strepII) (from UniProt Q49MG5) W432A; W476A; W519A; W563A; W606A”, the response in experiment [1] came out at 0.04 a.u.

Consider “MAP9-MTBD R1R2 (from UniProt Q49MG5 302-647) (domain or fragment)”, for which, in experiment [2], the percent reduction of MT binding against WT MAP9-MTBD amounted to 80%.
